Consider four molecules from PMC4894546 (Nature structural & molecular biology, 2016).

In one series the target is TDG (Homo sapiens, UniProt Q13569 1-410). The experiment in a line: EMSA.
Series [1] concerns the target T1, NEIL2 (Homo sapiens, UniProt Q969S2 1-332).
T1 sequence: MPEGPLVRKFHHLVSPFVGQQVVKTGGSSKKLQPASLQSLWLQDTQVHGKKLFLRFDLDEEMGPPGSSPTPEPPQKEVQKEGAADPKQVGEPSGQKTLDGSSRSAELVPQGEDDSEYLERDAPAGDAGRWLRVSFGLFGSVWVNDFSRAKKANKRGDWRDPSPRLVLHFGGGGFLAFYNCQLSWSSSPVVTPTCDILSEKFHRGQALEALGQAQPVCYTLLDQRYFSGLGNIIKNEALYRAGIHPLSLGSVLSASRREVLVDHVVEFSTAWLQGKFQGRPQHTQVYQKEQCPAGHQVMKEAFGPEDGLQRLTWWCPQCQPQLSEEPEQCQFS
The experiment in a line: EMSA.

The target in series [2] is T2, NEIL1 (Homo sapiens, UniProt Q96FI4 1-390). The experiment in a line: EMSA.
T2 sequence (Q96FI4 whole entry): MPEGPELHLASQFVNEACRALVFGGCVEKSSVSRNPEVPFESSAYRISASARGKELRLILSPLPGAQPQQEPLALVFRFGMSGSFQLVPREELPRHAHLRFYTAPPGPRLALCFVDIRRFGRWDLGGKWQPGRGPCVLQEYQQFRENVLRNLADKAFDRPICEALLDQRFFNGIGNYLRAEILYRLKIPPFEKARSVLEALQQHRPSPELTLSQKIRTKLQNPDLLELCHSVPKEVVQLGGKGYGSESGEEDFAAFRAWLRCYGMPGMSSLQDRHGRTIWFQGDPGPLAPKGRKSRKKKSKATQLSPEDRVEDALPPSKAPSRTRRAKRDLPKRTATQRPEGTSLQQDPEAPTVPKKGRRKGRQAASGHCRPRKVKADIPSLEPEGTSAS
For series [3], the target named is human thymine DNA glycosylase (TDG), recombinant (human, UniProt Q13569 1-410). The experiment in a line: MST.
Chain of human thymine DNA glycosylase (TDG), recombinant (Q13569 whole entry): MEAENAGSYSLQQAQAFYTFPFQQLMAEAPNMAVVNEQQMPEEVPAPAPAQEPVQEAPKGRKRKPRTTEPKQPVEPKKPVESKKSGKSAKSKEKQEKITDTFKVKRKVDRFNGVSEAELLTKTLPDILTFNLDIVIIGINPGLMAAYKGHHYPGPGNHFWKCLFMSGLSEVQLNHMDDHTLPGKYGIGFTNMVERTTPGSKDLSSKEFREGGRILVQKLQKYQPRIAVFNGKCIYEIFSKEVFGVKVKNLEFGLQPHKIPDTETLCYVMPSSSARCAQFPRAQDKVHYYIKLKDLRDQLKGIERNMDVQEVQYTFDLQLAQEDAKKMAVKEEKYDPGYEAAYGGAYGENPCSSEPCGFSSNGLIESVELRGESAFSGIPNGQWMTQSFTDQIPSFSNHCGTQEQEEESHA
The target of series [4] is T1, NEIL2. The experiment in a line: EMSA. The source holds these as a separate data set.
For series [5], the target named is T2, NEIL1. The experiment in a line: EMSA. This is another data set of the same source.

Chain of TDG (Q13569 whole entry): as above

B1: 20mer_5caC duplex (5caC:G) (dsDNA)
DNA 1: CGCTAGGATCCGGCCCCGCC
DNA 2: GGCGGGGCCGGATCCTAGCG
modifications: 5-carboxylcytosine at position 11 of strand 1 (hemi-modified)
B1: the binding result with TDG, in the series with NEIL2 [1] and with NEIL1 [2] was “binds” in each case.

B2: human NEIL2 DNA glycosylase, recombinant (enzyme, UniProt Q969S2 1-332, looked up)
chain: MPEGPLVRKFHHLVSPFVGQQVVKTGGSSKKLQPASLQSLWLQDTQVHGKKLFLRFDLDEEMGPPGSSPTPEPPQKEVQKEGAADPKQVGEPSGQKTLDGSSRSAELVPQGEDDSEYLERDAPAGDAGRWLRVSFGLFGSVWVNDFSRAKKANKRGDWRDPSPRLVLHFGGGGFLAFYNCQLSWSSSPVVTPTCDILSEKFHRGQALEALGQAQPVCYTLLDQRYFSGLGNIIKNEALYRAGIHPLSLGSVLSASRREVLVDHVVEFSTAWLQGKFQGRPQHTQVYQKEQCPAGHQVMKEAFGPEDGLQRLTWWCPQCQPQLSEEPEQCQFS
Regarding B2, the binding result in series [3] was “binds”.

B3: 20mer_dC duplex (unmodified) (dsDNA)
DNA 1: CGCTAGGATCCGGCCCCGCC
DNA 2: GGCGGGGCCGGATCCTAGCG
B3 yielded a Kd in the series with NEIL2 [4] of 27 nM. In the series with NEIL1 [5], the binding signal is 3 fold lower affinity than AP site duplex.

B4: 20mer_5fC duplex (5fC:G) (dsDNA)
DNA 1: CGCTAGGATCCGGCCCCGCC
DNA 2: GGCGGGGCCGGATCCTAGCG
modifications: 5-formylcytosine at position 11 of strand 1 (hemi-modified)
As for B4, the binding result with TDG, in the series with NEIL2 [1] and in the series with NEIL1 [2] was “binds” in each case.
